Measured values: US20230203146A1

Tests used:
[1] = target: FLAG-tagged human Ang2 (human) (UniProt O15123); assay: competition ELISA: blocking of FLAG-hAng2 binding to coated hTie2-Fc
[2] = target: FLAG-tagged human Ang2 (human) (UniProt O15123); assay: as above; remark: listed apart in the source
[3] = target: FLAG-tagged human Ang2 (human) (UniProt O15123); assay: as above; remark: listed apart in the source
[4] = target: FLAG-tagged mouse Ang2 (mouse) (UniProt O35608); assay: competition ELISA: blocking of FLAG-mAng2 binding to coated mTie2-Fc
[5] = target: FLAG-tagged human Ang2 (human) (UniProt O15123); assay: competition ELISA: blocking of FLAG-hAng2 binding to coated hTie2-Fc; remark: listed apart in the source
[6] = target: FLAG-tagged cynomolgus Ang2 (cynomolgus); assay: competition ELISA: blocking of FLAG-cAng2 binding to coated cTie2-Fc
[7] = target: FLAG-tagged mouse Ang2 (mouse) (UniProt O35608); assay: competition ELISA: FLAG-mAng2 binding to coated mTie2-Fc, residual mAng2 detected with anti-FLAG-HRP
[8] = target: FLAG-tagged mouse Ang2 (mouse) (UniProt O35608); assay: as above; remark: listed apart in the source
[9] = target: FLAG-tagged cynomolgus Ang2 (cynomolgus); assay: competition ELISA: FLAG-cAng2 binding to coated cTie2-Fc, residual cAng2 detected with anti-FLAG-HRP
[10] = target: FLAG-tagged human Ang2 (human) (UniProt O15123); assay: competition ELISA: FLAG-hAng2 binding to coated hTie2-Fc, residual hAng2 detected with anti-FLAG-HRP
[11] = target: FLAG-tagged human Ang2 (human) (UniProt O15123); assay: as above; remark: listed apart in the source
[12] = target: FLAG-tagged human Ang2 (human) (UniProt O15123); assay: as above; remark: listed apart in the source
[13] = target: FLAG-tagged human Ang2 (human) (UniProt O15123); assay: as above; remark: listed apart in the source
[14] = target: FLAG-tagged mouse Ang2 (mouse) (UniProt O35608); assay: competition ELISA: FLAG-mAng2 binding to coated mTie2-Fc, residual mAng2 detected with anti-FLAG-HRP; remark: listed apart in the source

Sequence of FLAG-tagged human Ang2 (human) (O15123 19-496): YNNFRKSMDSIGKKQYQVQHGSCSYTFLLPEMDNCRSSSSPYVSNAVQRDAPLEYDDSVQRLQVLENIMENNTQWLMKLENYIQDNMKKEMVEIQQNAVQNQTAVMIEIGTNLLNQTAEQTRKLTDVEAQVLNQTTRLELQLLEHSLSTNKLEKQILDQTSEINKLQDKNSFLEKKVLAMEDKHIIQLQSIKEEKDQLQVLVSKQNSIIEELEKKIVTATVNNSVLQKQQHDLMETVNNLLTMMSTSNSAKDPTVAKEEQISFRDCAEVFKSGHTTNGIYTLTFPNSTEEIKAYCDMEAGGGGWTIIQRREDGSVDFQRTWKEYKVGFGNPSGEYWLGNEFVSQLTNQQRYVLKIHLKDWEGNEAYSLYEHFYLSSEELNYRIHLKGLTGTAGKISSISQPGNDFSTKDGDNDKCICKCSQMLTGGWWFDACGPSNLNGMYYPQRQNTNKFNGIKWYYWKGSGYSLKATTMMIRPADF
Sequence of FLAG-tagged mouse Ang2 (mouse) (O35608 19-496 limits assumed): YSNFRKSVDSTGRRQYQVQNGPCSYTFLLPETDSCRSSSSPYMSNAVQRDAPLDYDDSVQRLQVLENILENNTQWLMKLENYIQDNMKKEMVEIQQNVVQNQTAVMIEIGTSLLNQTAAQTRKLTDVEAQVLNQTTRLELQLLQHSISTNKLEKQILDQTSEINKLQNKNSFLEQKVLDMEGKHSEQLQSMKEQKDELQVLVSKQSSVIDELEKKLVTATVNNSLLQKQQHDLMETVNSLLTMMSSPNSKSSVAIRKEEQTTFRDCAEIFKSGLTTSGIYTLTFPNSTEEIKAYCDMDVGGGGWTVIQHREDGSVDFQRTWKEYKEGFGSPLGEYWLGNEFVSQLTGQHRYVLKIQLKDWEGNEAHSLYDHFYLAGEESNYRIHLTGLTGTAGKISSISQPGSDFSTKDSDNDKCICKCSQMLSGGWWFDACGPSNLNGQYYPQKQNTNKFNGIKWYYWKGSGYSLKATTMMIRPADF
Sequence of FLAG-tagged cynomolgus Ang2 (cynomolgus) (O15123 other isoform, or with tags, fused parts or gaps limits assumed): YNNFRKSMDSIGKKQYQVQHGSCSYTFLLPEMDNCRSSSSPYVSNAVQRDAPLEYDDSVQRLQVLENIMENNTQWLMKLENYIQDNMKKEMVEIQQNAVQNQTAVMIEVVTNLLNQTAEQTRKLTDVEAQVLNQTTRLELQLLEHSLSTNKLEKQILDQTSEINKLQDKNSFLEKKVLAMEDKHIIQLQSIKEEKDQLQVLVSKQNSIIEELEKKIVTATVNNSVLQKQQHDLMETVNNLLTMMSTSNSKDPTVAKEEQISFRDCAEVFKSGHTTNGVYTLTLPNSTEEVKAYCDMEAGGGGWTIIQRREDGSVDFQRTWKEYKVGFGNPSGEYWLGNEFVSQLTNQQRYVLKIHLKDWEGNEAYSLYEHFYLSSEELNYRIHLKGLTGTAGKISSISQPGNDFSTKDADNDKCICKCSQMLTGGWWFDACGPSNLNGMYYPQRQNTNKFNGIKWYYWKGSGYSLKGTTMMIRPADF

IC50 (read off the curve) [1]: 4 pM
IC50 (read off the curve) [2]: 5 pM
IC50 (read off the curve) [3]: 3 pM
IC50 (read off the curve) [4]: 6 pM
IC50 (read off the curve) [5]: 0.5 pM
IC50 (read off the curve) [6]: 1 pM
IC50 (read off the curve) [7]: 7 pM
IC50 (read off the curve) [8]: 3 pM
IC50 (read off the curve) [9]: 10 pM
IC50 (read off the curve) [10]: 2 pM
IC50 (read off the curve) [11]: 3 pM
IC50 (read off the curve) [12]: 6 pM
IC50 (read off the curve) [13]: 5 pM
IC50 (read off the curve) [14]: 4 pM
Substance: AMG386 (Fc fusion)
